Biological target: HBV 21 kDa viral core protein (p21) (human hepatitis B virus (HBV))

Met-p22 (precore protein lacking the signal peptide sequence and having instead an initial methionine), expressed from pCMVKM22
HBV DNA replication, titration of plasmid molar ratios: 15 fold

— patent publication US6060595
